The target of this data set is Clover-SNAP-25-mRuby2 FRET sensor (UniProt P60880).
Chain of UniProt P60880 (P60880 whole entry, looked up): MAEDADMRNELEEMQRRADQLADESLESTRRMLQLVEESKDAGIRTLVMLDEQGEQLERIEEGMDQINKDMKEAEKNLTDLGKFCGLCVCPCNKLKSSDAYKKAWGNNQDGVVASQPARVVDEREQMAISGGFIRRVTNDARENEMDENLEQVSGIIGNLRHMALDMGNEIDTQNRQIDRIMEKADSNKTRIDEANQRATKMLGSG

“WT tALC (truncated wild-type BoNT/A-LC, residues 1-424)”: the % activity relative to WT tALC turned out to be 100% and the “dynamic range in FRET upon SNAP-25 cleavage” value is recorded as 6-fold emission ratio in 30 minutes.
